“Also recorded” adds a separate entry of the source.
Key:
[1] = target: ED-B containing fibronectin fragment (67B89) (Homo sapiens, UniProt P02751); test: label-free interaction assay using Biacore; format: binding; conditions: 1:1-Langmuir-fitting
Procedure: Different concentrations of the variant were analyzed (for example, 0-200 nM of the variant, preferably 1041-D11) for binding to an ED-B containing fibronectin fragment (referred to as 67B89) immobilized on a CM5-chip (Biacore) using methods known to those skilled in the art. The obtained data were processed via the BIAevaluation software and 1:1-Langmuir-fitting. The kinetic binding constants were kon=7.6*10^5 M^−1 s^−1; koff=7.7*10^−4 s^−1. […]

[2] = target: T1, Human fibronectin lacking the ED-B domain (h6789) (Homo sapiens, UniProt P02751); test: concentration dependent ELISA, negative control fibronectin fragment without ED-B; format: binding
T1 construct: fibronectin fragment 6789 without ED-B

murine ST-2-cells = test: binding to cell culture cells, ST-2; format: cell-based; conditions: 1, 10, 50 nM
Procedure: (§1) The binding of, for example, variant 1041-D11 to cell culture cells was tested. Different cell culture cells were analysed, including normal human fetal lung fibroblast cells having high expression levels of ED-B (Wi38 cells), a mouse embryonic fibroblast cell line (Balb 3T3); a stromal cell line, derived from mouse bone marrow (ST-2) monocytes/macrophages (RAW 264.7), NHDF cells and murine fibroblast cells (LM).
(§2) Similar experiments were performed using different cells types, for example Balb3T3 (ATCC, Kat-Nr. 30-2002), Raw (Lonza, Kat-Nr. BE12-115F/U1), ST-2 (Lonza, Kat-Nr. BE12-115F/U1).

[3] = target: T2, ED-B in F9 tumor vasculature (Mus musculus, UniProt P11276); test: immunohistochemistry on F9 tumor tissue sections; parameters: species or system mice; conditions: seven samples
T2 construct: 1041-D11 specifically decorates the vasculature in tissue sections from F9 tumors; from tissue; host or cells: F9 tumor tissue sections from mice
Procedure: F9 tumor tissues from seven samples were evaluated. […] ED-B is a highly specific marker for tumor vasculature. The target protein EDB is located on the abluminal side of the vessels. 1041-D11 specifically decorates the vasculature in tissue sections from F9 tumors. […] Thus, fusion proteins based on modified ubiquitin specifically binding to ED-B are suitable an ED-B based targeted therapy for cancer.

[4] = target: immobilized ED-B containing fibronectin fragment (67B89) (Homo sapiens, UniProt P02751); test: competitive concentration dependent ELISA; format: binding; conditions: in the presence of increasing amounts of free target
Procedure: Competitive concentration dependent ELISAs analyzed the binding of ubiquitin variant 1041-D11 to immobilized ED-B containing fibronectin fragment […] in the presence of increasing amounts of free target. Conditions of the ELISA were as described for Example 5A, except that 1041-D11 protein was preincubated with ED-B (67B89) (0 μM-10 μM) or also with negative control 6789 (0 μM-10 μM) for 1 h and subsequently the mixture was given to the target 67B89 that was placed on a Medisorp-plate; following this, the variant was detected by the corresponding antibody (anti-Ubiquitin-Fab-POD; dilution 1:6500).

[5] = tissue panel staining (48 tissues, FDA relevant panel)
[6] = test system: human fetal lung fibroblast cells (Wi38); test: binding to cell culture cells, Wi38; format: cell-based; conditions: immunofluorescence
Procedure: as §1
The negative control cell type NHDF are primary normal fibroblast cells, which express low levels of EDB-fibronectin (data not shown).
The negative control cell type NHDF is primary normal fibroblast cells, which express low levels of EDB-fibronectin. The cells were plated in chamber-slides (NUNC, 60000 cells/ml). To analyses the binding potential the cells were fixed with 100% MeOH for 5 min at −20° C. To block unspecific binding, the cells were incubated with 5% Horse-serum 1 h 37° C. The cells were tested with the variant 1041-D11, an ED-B specific antibody FV28 CH4/F1 as positive control or UB—2 as negative control with different concentrations 1 h RT. The proving occurred about an incubation with rabbit-a-Strep-Tag-IgG (obtained from GenScript A00875, 1:500) for 1 h and incubation with a-rabbit-IgG*Alexa488-AK (obtained from Invitrogen A11008, 1:1000) for 1 h. The nuclei were stained with DAPI. […] The first 2 lines show the variant and positive control on Wi38-cell line.

[7] = target: T3, ED-B free fibronectin fragment 6789 (Homo sapiens, UniProt P02751); test: complex-formation analysis by SE-HPLC with 6789; format: binding; conditions: 0.72 nmol each, 1 h RT
T3 construct: fibronectin fragment 6789 without ED-B
Procedure: (§3) For the analysis of complex formation, Tricorn Superdex 75 5/150 GL columns (GE-Healthcare) (V=3 ml) was used, protein amount of 50 μl was applied. Further conditions: buffer: 1×PBS, pH 7.3, flow-rate: 0.3 ml/min, run: 45 min (injection of sample: after 15 min). Condition: 0.72 nmol 1041-D11 protein+0.72 nmol ED-B (herein referred to 67B89 or also as a negative control 6789) incubated for 1 h at RT; then applied to column for analysis of complex-formation. In FIG. 14, only the variant is shown in black, only the target ED-B is shown in blue, the variant binding building a complex with ED-B in pink.

[8] = test system: monocytes/macrophages (RAW 264.7); test: binding to cell culture cells, Raw; format: cell-based; conditions: data not shown
Procedure: as §1, §2

[9] = target: fibronectin fragment 67B89 (soluble ED-B) (Homo sapiens, UniProt P02751); test: complex-formation analysis by SE-HPLC with 67B89; format: binding; conditions: 0.72 nmol each, 1 h RT
Procedure: as §3

ED-B (67B89) = ED-B (67B89) (Homo sapiens, UniProt P02751); test: concentration dependent ELISA analyzing serum-stability of binding activity; conditions: 1 h at 37° C. in mouse or rat serum
Procedure: The ELISA is performed using procedures well known in the art and as described above (Example 5A and 5B). ED-B (here referred to as 67B89) is coated to microtiter plates, the variant is bound to ED-B and detected by a specific ubiquitin-antibody (Anti-Ubi-Fab-POD). The variant in this assay is treated in different ways: the variant is incubated in mouse serum for 1 h at 37° C. (see in FIG. 13, circles in blue); the variant is incubated in rat serum for 1 h at 37° C. (in FIG. 13, circles in red); or the variant is incubated PBS for 1 h at 37° C. (in FIG. 13, circles in black).

murine Balb 3T3-cells = test: binding to cell culture cells, Balb 3T3; format: cell-based; conditions: 1, 10, 50 nM
Procedure: as §1, §2

L929 cells = test: L929 apoptosis assay (TNFα activity); format: cell-based; conditions: actinomycinD sensitized L929 cells, 48 h; listed as free cytokine; read-out: EC50 value, corresponding TNFα (free cytokine) tested in parallel
Procedure: The physiological TNFα-activity of TNFα-modified ubiquitin based ED-B binding fusions has been determined using the L929 apoptosis assay (Flick et al., 1984 J. Immunol. Methods. 68:167-175). In this assay, TNF-alpha efficiently stimulates cell death in actinomycinD sensitized cells at EC50 values in the picomolar range.
Cells have been resuspended in medium containing FBS and antibiotics. A cell suspension of 100 μl of a densitiy of 3.5×10^5 cells/ml has been seeded into the wells of a 96 well standard cell culture plate followed by over night incubation in a humidified CO2 incubator. Thereafter, the culture medium has been removed and 50 μl of medium containing FBS, ActinomycinD and antibiotics has been added to each well followed by a further 30 min incubation time. Thereafter, 50 μl of the test items, TNFα-modified ubiquitin based ED-B binding-fusions or the human recombinant TNFαcontrol, at an appropriate concentration range of between 10^−7 and 10^−18 M, have been added. After a further 48 h incubation time the metabolic activity as a measure of cell survival was determined using WST-1 reagent (Roche).
Per test item at least three independent experiments have been conducted, each of them in triplicates. […]
The quantitative evaluation is based on the EC50-value, i.e. the value according to the test item concentration promoting the survival of half of the cells.

Chain of ED-B containing fibronectin fragment (67B89) (P02751 32-2477): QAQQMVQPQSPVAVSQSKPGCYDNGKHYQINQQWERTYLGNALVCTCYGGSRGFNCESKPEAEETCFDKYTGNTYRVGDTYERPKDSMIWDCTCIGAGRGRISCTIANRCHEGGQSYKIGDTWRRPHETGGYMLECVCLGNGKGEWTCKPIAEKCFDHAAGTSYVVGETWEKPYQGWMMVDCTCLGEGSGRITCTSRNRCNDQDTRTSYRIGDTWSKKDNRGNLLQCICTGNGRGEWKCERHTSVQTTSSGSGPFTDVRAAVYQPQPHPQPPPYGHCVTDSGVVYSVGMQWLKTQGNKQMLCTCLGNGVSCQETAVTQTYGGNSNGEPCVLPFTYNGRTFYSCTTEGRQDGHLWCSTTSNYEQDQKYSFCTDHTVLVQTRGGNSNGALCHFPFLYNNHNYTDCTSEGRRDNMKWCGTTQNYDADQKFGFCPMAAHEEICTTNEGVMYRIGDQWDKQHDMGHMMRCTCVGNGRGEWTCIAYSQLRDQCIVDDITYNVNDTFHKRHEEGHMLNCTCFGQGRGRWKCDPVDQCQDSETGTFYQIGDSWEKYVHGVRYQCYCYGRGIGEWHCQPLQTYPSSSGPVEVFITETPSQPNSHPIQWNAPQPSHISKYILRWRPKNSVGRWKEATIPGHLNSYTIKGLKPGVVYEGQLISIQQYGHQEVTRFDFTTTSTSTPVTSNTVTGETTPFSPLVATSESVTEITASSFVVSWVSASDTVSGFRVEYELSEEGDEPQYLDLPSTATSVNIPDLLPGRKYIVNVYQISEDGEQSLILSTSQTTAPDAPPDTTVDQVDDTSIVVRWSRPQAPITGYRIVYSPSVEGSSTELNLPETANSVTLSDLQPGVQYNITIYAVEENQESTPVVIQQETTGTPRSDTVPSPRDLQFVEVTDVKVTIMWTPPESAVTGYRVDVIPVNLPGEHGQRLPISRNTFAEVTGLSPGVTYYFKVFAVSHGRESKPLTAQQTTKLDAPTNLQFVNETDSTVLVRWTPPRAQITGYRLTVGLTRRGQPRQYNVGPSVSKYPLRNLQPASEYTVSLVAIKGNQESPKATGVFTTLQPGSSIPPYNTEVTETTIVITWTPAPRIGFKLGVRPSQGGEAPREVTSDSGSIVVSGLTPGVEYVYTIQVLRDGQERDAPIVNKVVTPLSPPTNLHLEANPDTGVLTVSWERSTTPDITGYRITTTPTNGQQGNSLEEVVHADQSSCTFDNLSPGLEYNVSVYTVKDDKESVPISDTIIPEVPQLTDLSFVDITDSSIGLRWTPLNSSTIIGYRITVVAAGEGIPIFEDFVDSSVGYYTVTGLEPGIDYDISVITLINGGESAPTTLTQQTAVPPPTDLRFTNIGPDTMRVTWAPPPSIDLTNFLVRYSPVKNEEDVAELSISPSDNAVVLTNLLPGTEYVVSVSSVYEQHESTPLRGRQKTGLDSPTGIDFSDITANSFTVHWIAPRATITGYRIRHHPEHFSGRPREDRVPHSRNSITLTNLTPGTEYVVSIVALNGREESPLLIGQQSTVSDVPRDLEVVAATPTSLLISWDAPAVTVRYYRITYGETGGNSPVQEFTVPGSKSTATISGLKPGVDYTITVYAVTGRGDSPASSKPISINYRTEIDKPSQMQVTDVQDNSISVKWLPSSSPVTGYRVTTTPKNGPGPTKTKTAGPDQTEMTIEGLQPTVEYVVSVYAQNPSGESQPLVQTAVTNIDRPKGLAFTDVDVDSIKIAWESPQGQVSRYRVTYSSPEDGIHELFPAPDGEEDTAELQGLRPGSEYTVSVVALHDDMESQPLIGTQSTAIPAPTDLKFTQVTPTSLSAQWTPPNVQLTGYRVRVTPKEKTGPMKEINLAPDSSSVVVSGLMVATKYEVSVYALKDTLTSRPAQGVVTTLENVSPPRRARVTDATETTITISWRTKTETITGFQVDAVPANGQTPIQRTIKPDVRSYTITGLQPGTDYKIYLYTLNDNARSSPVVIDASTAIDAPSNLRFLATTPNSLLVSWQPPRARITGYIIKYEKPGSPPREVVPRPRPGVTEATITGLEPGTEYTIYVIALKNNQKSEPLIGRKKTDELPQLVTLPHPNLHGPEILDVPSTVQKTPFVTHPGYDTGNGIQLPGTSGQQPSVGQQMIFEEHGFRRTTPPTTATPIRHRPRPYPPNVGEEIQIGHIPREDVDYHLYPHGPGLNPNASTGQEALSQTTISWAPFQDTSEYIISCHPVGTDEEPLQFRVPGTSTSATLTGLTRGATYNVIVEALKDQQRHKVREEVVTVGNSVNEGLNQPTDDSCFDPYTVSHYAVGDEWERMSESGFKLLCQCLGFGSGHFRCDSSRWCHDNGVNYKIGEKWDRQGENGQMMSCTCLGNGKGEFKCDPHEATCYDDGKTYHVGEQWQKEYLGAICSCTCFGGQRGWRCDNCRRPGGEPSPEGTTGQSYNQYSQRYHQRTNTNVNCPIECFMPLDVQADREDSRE
Chain of fibronectin fragment 67B89 (soluble ED-B) (P02751 32-2477): as above
T3 sequence (P02751 1089-1449 isoform P02751-1): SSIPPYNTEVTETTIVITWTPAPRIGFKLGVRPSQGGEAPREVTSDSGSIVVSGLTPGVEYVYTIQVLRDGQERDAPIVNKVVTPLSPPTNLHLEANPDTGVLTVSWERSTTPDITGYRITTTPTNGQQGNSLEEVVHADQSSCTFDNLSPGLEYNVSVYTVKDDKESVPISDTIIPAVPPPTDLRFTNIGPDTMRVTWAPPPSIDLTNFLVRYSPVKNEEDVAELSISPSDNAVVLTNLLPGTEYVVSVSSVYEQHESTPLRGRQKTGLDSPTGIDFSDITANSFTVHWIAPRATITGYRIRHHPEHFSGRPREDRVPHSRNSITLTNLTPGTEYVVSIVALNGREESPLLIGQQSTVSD
Chain of ED-B (67B89) (P02751 32-2477): as the sequence (P02751 32-2477) above
Chain of immobilized ED-B containing fibronectin fragment (67B89) (P02751 32-2477): as above
T1 sequence (P02751 1089-1449 isoform P02751-1 limits assumed): as the sequence (P02751 1089-1449 isoform P02751-1) above

Substance	koff [1] [s⁻¹]	kon [1] [M⁻¹ s⁻¹]	binding to negative control fibronectin fragment without ED-B (6789) [2]	binding to fixed murine ST-2-cells (murine ST-2-cells)	staining of F9 tumor tissue sections [3]	IC50 [4] [nM]	unspecific staining in 48 tissues of FDA relevant panel [5]	binding to vital Wi38 cells [6]	binding to fixed Wi38 cells ([6]; 58.7 nM and 587 nM)	complex formation with 6789 [7]	binding to monocytes/macrophages (Raw) [8]	complex formation with 67B89 [9]	influence of blood serum on binding to ED-B (ED-B (67B89))	binding to fixed murine Balb 3T3-cells (murine Balb 3T3-cells)	EC50 (L929 cells) [nM]
1041-D11: hetero-dimeric ubiquitin variant: K6W, L8W, K63R, E64K, S65F, T66P; second module Q2R, K6T, L8Q, Q62W, K63S, E64N, S65W, T66E	0.00077	760000	no binding	binds to murine Balb ST-2 cells with high specificity	ED-B specific vascular staining	140	no unspecific staining	binds to vital Wi38 cells with high specificity	binds to fixed Wi38 cells with high specificity	no significant binding; also recorded: builds no complex	No binding	formation of a complex; also recorded: builds a complex	not significantly influenced	binds to murine Balb 3T3 cells with high specificity	–
TNFα [reference compound]	–	–	–	–	–	–	–	–	–	–	–	–	–	–	0.00314 ± 0.00359

Source: US20120301393A1, “MODIFIED UBIQUITIN PROTEINS HAVING A SPECIFIC BINDING ACTIVITY FOR THE EXTRADOMAIN B OF FIBRONECTIN” (Scil Proteins GmbH, priority 2009, published 2012)
